US8911953B2, “TDF-related compounds and analogs thereof, analogs and bioactive fragments” (Thrasos Innovation, Inc., priority 2005, dated 2014)
Positions of bridges follow the written chain, without caps; N, C: chain ends. No end group written: not given here.

B1: BMP-7: recombinant human mature BMP-7 (BMP-7 or TDF-1), positive control therapy (protein)
chain: STGSKQRSQNRSKTPKNQEALRMANVAENSSSDQRQACKKHELYVSFRDLGWQDWIIAPEGYAAYYCEGECAFPLNSYMNATNHAIVQTLVHFINPETVPKPCCAPTQLNAISVLYFDDSSNVILKKYRNMVVRACGCH

How the values were obtained:
HK-2 cells = test: Smad1 phosphorylation and nuclear translocation in HK-2 cells (immunofluorescence); type: cell-based, human; conditions: 1.3 uM and 33 uM compound
Protocol: Phosphorylation and nuclear translocation of Smads occurs following the activation of Type I and Type II receptors and subsequent signal transduction to intracellular Smad targets. Phosphorylation and nuclear translocation of R-Smad in HK-2, vascular endothelial, human prostate or other cells by TDFRP compounds is assayed by immuno-fluorescent microscopy methods, using anti-phospho Smad 1/5 antibodies according to the procedure of H Aoki, M Fujii, T Imamura, K Yagi, K Takehara, M Kato and K Miyazono. J. of Cell Sci. 114, 1483-1489, 2001) and by Western blot analysis (FIGS. 2, 3, 18, 2X).
For example, HK-2, human proximal tubule cells are incubated in culture medium alone or exposed TDFRP or control compounds for one hour ten minutes at 37 degree C. BMP-7 served as a positive control in the assay. Each well is rinsed with 1 mL prewarmed medium. 1 mL per well of cold Acetone/Methanol mix (1:1) is added and incubated for 2 minutes at room temperature to fix the cells. Wells are washed with 1 mL of cold PBS and blocked with 1 mL blocking buffer (3% BSA, 1% goat serum in PBS) for 7 minutes. Wells are aspirated without disturbing the cells, and 500 uL/well primary antibody is added (anti-phospho-Smad 1) at 0.056 ug/mL concentration in 3% BSA in PBS (no goat serum). Cells are incubated overnight at 4 degrees C. […]

NTN mice = conditions: cited from earlier work

Molecule	Smad1 phosphorylation, activation and translocation in the nucleus (HK-2 cells)	progression to chronic renal disease (NTN mice; about 300 micrograms/kg, starting after one week of NTN)	renal pathology (NTN mice; treatment from week 3 or week 4 through week 6)
CYFDDSSNVLCKKYRS (disulfide 1-11 (inferred); not fully specified) [SEQ ID NO:45]	Smad1 phosphorylation, activation and translocation in the nucleus		
B1		prevent progression to chronic renal disease	almost completely reversed renal pathology
